# Laboratory results from the DeepSol protein solubility set.
# Assay: soluble on expression in E. coli; label from the status in PepcDB or PDB records
row,Sequence,soluble on expression in E. coli
1,MKLRSWEFYDRIARAYDSMYETPKWKLYHRLIGSFLEEYLKNPCRVLDLGGGTGKWSLFLQERGFEVVLVDPSKEMLEVAREKGVKNVVEAKAEDLPFPSGAFEAVLALGDVLSYVENKDKAFSEIRRVLVPDGLLIATVDNFYTFLQQMIEKDAWDQITRFLKTQTTSVGTTLFSFNSYAFKPEDLDSLEGFETVDIRGIGVMEYPDERISEREETIFRLEQELSRDRNIIWKADHIFFVLKKKRGA,not soluble
2,MGLYAISDLHLAFNLDKPMNIFGEEWSKHDEKIKKNWISKISEEDTVLIAGDISWSMDIENGEEDLNWIDCLPGKKIICKGNHDYWWKSITKLNNMYKSISFLQNNFFEYKDYAICGTRGWIDKSFDSFDEHDKKVYKREIIRLRLSLDAAVKKGYSKFIVMFHYPPFKDENSGSEFTEVLEEYKVEKAIYGHLHGPALKNISGSIVKNGVEYMLTSCDYIEFNPIKIDLKLEHHHHHH,soluble
3,MAGDPMIEVIGVRFKKAGKIYYFGPNGIEIKKGQNVIVETARGIEFGECVIGIRKISEEDIVAPLKSVLRLATEEDINKHKENKAKETEAFEICLKKIEEHNLVMKLIDVEYTFDNNKVIFYFTAEGRVDFRELVKDLATIFKTRIELRQIGVRDEAKMIGGLGPCGRPLCCSTFLGDFASVSIKMAKEQSLSLNPTKISGICGRLMCCLNYEQSTYEEIRKELPRVGSVVETELGKGEVVGNNVLKELVRVKLPRKNEEIIQDFKMYDVKLISGSYEGEVEDTNIRLEITDEADKALIKNLIKDNLEHHHHHH,soluble
4,MSAAEGAVVFSEEKEALVLKSWAIMKKDSANLGLRFFLKIFEIAPSARQMFPFLRDSDVPLETNPKLKTHAVSVFVMTCEAAAQLRKAGKITVRETTLKRLGGTHLKYGVADGHFEVTRFALLETIKEALPADMWGPEMRNAWGEAYDQLVAAIKQEMKPAE,soluble
5,MKLGYSLSKSNAKNFKFYINGSAMGYKNIIINGAKSWNASPYLNTVSKGRDANPHFIISSSTIDRGATVAVCETWAYKGSKLVAKNEITTFKAFRSLSVGDKTETIAHEFGHGLGLGHVKTKNAIMLDVGFTKKIKPQRDDLNGIKAIYKLEHHHHHH,not soluble
6,GPGSMTDLRGVLPSKVISTPSGFVECSTHNVRRKAECCEMKAVLNADMEVIDYICVCKHPFTCKSASERQSNGLAAASNARRNAPDGERSGTAPLVIDASSTSMTAQSQHHHHGGQPSAAGAADKEAGVSTLFAVSFYDASRSTPGPSASATAAAVSPKPSAKDGEDREDEKGKDTRANAMRISDSDSDTDDGDSLDNSPSFTAGATPATAATAASFPAAPRERSRYYDSLQNASTGGHAPPAKVCWGCGMTGHEKPACPNALCRTCHQKRGPYGSPHRCTPVVTPSPLIVYPTPSEWRAATQKTAAAAGEPNGMAAVRCVACNEYGHFDCSTVVLPSSYALVASSSPGPAAVPHTLVPTCCFCGVRGHTVFDCQQREHVNPDYFERRNQLFADSVRRGSGITAAGAPFSNSGSSSGYGHPSQQQRQQRFYGSPTGGAPLSSSSFTRYGNGRGGGGSGQRRERDWCDNREQRVGGSQYSNSRREGSAYNNDSYGGDRDHQRRRYESPSFSRAGGGPAPSSSLLMHGRDRCQEGGQRHHEERSRDSYGGSHQRYSEGEHGGAGSRGHGQRSHYSQQSQHSHRHGSSRRGGRLGDSGYYSDDNLF,not soluble
7,MSLKNLGSPVFFFQERPGKDGKPFKMVKFRSMRDALDSDGIPLPDGERLTPFGKKLRAASLDELPELWNILKGEMSLVGPRPLLMQYLPLYDNFQNRRHEMKPGITGWAQVNGRNALSWDEKFACDVWYIDHFSLCLDIKILLLTVKKVLIKEGISAQGEATMPPFTGKRKLAVVGAGGHGKVVADLAAALGRYREIVFLDDRAQGSVNGFSVIGTTLLLENSLSPEQYDVAVAVGNNRIRRQIAEKAAALGFALPVLVHPDATVSPSATVGQGSVVMAKAVVQAGSVLKDGVIVNTAATVDHDCLLNAFVHISPGAHLSGNTHIGEESWIGTGACSRQQIRIGSRATIGAGAVVVRDVSDGMTVAGNPAKPLPRKNPETSTAEGHHHHHH,not soluble
8,MGKLMEIIIISGRSGAGKSVALRALEDAGYYCVDNIPLDLLPQLTDILSQSQSSVAISLDIRNIPNSAHSLKQTLSTLQKHHQIKIIFLEADRATLIRRYSDSRRLHPLSLKDLSLEAAIDEEYRYLEPLIQHANLILDTTHLSTHSLAERLREFLRGNSEKELKIIVESFGFKYGIPLDADYVFDVRFLPNPHWDPTLRPMTGLEAPVAEFLNSHTEVNEFIYLTRHYIDTWLPMLEKNNRSYLTIAIGCTGGKHRSVYIAQQLGEYFQAKGKTVKIQHKSLERNKKI,not soluble
9,MGSDKIHHHHHHLGILDAPAVQPSKVGLEALYAKTSASLGLFHTSLAGRHFAPCKILVVGDSISEGAGATLNIRNRWQDRLKENLRSRFPTDGSPGTTLHYVPAMNVVNMPGDMAVRSAGVTTGTSFGFGARHAQLTAAGHTVTFTVTGTSAKVVYPKSSGGGSFTWQVDGGTVSSAVSQSAGSLTDGFTTDIPLGASGSHTVVIAWVSGGSVFIDGLLVYNGDETKGIHVIDGAHSGWGAQNFQLNGIQFYQGSLTTMLQPSLVIIALGINDFAFGSLSIANYKIHMQSNIDRYRGAIPTKPPSILLVAMHRRSPVSAVATWAEYVQAMKELAQANDGVAFLDLSARLPQVSGDTRGLYADEVHPANLGHSAIADNVTSFIVPR,not soluble
10,MGDWIIKLEDVSAGYGKLQTLFDVSLEIPRGLITVIVGPNGAGKSTLLKTMFGFTTVYKGRVLFENTDVTHMPPHDRAKIGMTFIFQLENIFRELTVYENLRLAGYDLPEDVFRDRLEEVFSMFPRLKERLGQKAGTLSGGERQMLAMAIGIMRKPKVFLIDEPTAGLSPKLAKEVLSYVRILNKEGYTVVLVEQNVKASLEIGDKGVLVVNGRIAFDGPAEELLARKDLAKMYLGV,soluble
11,KVVLISDVHVGSSQFLEDAWLDFLDFLKGESDSEEMREIASQVRYLVVAGDLVDGIGIYPDQEMELDILDVYEQYRKAADYFKEIPRHIRVIISPGNHDAVRQAEPQPALPERICADFPENVTFVGNPALVDLDGIRILIYHGRSIDDLVASVPGVSYHEPAGAVLEMLKRRHLAPTYGSRVSISPEKKDYFIIDPVPDIIHTGHVHTLGVQRYKNVLLVNSGTWQAQTEFQKRVNLVPVPARVPVVDLADFDVKILAFD,not soluble
12,MSLQKLVAIEPVSLVLSAEKALYSFADEVVMYSDIPAGDNEIIARIGDADAVLLSYTSQINRYILERCPNVRYIGMCCSLYSPESANVDIRYANERGITVTGIRDYGDEGVIEYVVSELVRCLHGFGQKPWEGIPREITGLKVGIVGLGKSGGMIADAMKFFGADIAYYARSEKKEAGAKGYRFMPLNELLTWSEVVCCCLNKNTVLLHEAEFKALGNRKILFNTGLSPAWDESSFTRWLEEDNLCFCDTLGALGSTALLTHPHVRCMQVSTGRTRQAFDRLSEKVLANLSEYNGEGHHHHHH,soluble
13,MAAIKINKLLTIESNSSHTLLESMEQAGLEPEYNCRDGHCGACRCQLISGEVEYVGFAMAYTQGNEILPCICRAKTALEIEQVTYQLKAKRA,not soluble
14,MSLASLRVLALACLPLFAVLHADAKTLLGKVKRATGMGVGEGPSVAKKPKYTATVPGFTPPSGDQRMNEFMAVDTSGEFMRHLYIEEGRTVCASATSRNRRPTSESPHSDDVVVVEGMLRGRPETRVHAMFDGFQGRHSAMWLAQNVMNYLNDLRDVNEEEITRQFERMDGDLRAANLPGGSSALIIFVRYEKKPTEARVVGRQIVPEGAKEFTSVAEALGGPLMPVVAMNFRRDPRAAKGIYTIHVASLGNSRCVLKSGRTAIHLSTPHTASSHKERHRVQAAGGVFTTVNGELLLGGVVPMTRAFGSFDFKKGGQGKLQQDLVSAVPDVTTFFAYPGDDEGHHHHHH,not soluble
15,MNIDTKYHGTVAVNEQDIVHFPHGLPGFADEKRFVLLPLADTPFVILQSVETPALGFVLIEPFSYFPTYEFELDEATVEQLDIESERDVAVYVILTVADPFHETTANLQAPVVINARKRFGKQVILANTPYKTKHRLFPEKVAT,not soluble
16,MSSKEQKTPNEQVSEEMENTAEQQVEATQETGECVDPRVAELEVQLSDALQRERESLLRAKAEVENIRRRTELDVEKAHKFALERFSSELLPVIDNLERALDTADKTNTELISMIEGVELTLKSLLDAVGKFGIEVVGETHVPFNPEVHQAMTMLESADHEPNHVMMVMQKGYTLNGRLLRPAMVAVSKAKS,not soluble
